Assay results taken from US20150344583A1 (Amgen, published 2015).
Substitutions are numbered along the chain they refer to. In names and notes the source's numbering stands. Read-outs that look alike come from different tables or passages of the source.

B1: 2A1-PEG4-Mal-DM4 (antibody, V domains shown)
VH: EVQLVESGGGLVKPGRSLRLSCTASGFTFGDYALSWFRQAPGKGLEWVGVSRSKAYGGTTDYAASVKGRFTISRDDSKSFAYLQMNSLKTEDTAVYYCCSSGYSSGWTPFDYWGQGTLVTVSS
VL: not shown
modifications: PEG4-Mal-DM4 conjugated, sites not stated
B2: 2A1-MCC-DM1 (antibody, V domains shown)
VH: B1 VH
VL: not shown
modifications: MCC-DM1 conjugated, sites not stated
B3: 2A1-S108R (antibody, V domains shown)
VH: B1 VH with S100R
VL: not shown
B4: 2A1CV5-MCC-DM1 (Ab-1 ADC) (antibody, human IgG1, lambda, V domains shown)
VH: B1 VH with R16G, T23A, F80T, C99A
VL: not shown
modifications: MCC-DM1 conjugated, sites not stated
B5: 32B5-MCC-DM1 (antibody, V domains shown)
VH: EVQLLESGGALVQPGGSLRLSCAASGFTFSSYAMNWVRQAPGKGLEWVSAISVGGDTYYADSVKGRFTISRDNSKNTLYLHVNSLSAEDSAVYYCAKDQVTLVRGVWYYYGLDVWGQGTTVTVSS
VL: VIVLIQSPLSLPVTPGEPASISCRSSQSLLHSNGNNYLDWYLQKPGQSPHLLISLGSNRTSGVPDRFSGSGSGTDFTLKISRVEAEDVGFYYCMQALQPPRRFGQGTKLEIKR
notes: MCC-DM1 conjugate of '32B5'
B6: Ab-2 (29C12_mut) (antibody, human IgG1, kappa, V domains shown)
VH: B5 VH with A10G, H81Q, V82M, S86R, S90T, L102M
VL: B5 VL with V1D, L4M, I5T, N58Q, F90V
notes: Human IgG1; also called 29C12 CV2; 29C12cv2
B7: 32B5 (antibody, V domains shown)
VH: B5 VH
VL: B5 VL
notes: IgG2 or IgG4 as purified from hybridoma (32B5.1); later converted to human IgG1; an engineered version may be meant there; also called 32B5.1; Ab-10
B8: 35D2 (antibody, V domains shown)
VH: B5 VH with D56G, S86R, S90T, L102M
VL: B5 VL
notes: IgG2 or IgG4, purified from hybridoma supernatant; also called 35D2.1; Ab-15
B9: 29C12-MCC-DM1 (antibody, V domains shown)
VH: B5 VH with H81Q, V82M, S86R, S90T, L102M
VL: B5 VL with V1D, L4M, F90V
B10: 37B2 (antibody, V domains shown)
VH: B5 VH with S31N
VL: B5 VL
notes: IgG2 or IgG4, purified from hybridoma supernatant; also called 37B2.1; Ab-16
B11: 29C12 (antibody, V domains shown)
VH: B5 VH with H81Q, V82M, S86R, S90T, L102M
VL: B5 VL with V1D, L4M, F90V
notes: IgG2 or IgG4 as purified from hybridoma (29C12.1); later converted to human IgG1; an engineered version may be meant there; also called 29C12.1; Ab-8
B12: Ab-3 (32B5_mut) (antibody, human IgG1, kappa, V domains shown)
VH: B5 VH with A10G, H81Q, S86R
VL: B5 VL with V1D, I5T, N58Q, F90V
notes: Human IgG1; also called 32B5 CV2; 32B5cv2
B13: 1E1-PEG4-Mal-DM4 (antibody, V domains shown)
VH: QVQLVQSGAEVKKPGASVKVSCKASGYTFTGHYIHWVRQAPGQGLEWMGWIYPNSGGTNYAQKFQGRVTMTRDTSISTAYMELSRLRSDDSAVYYCAREGMVTGDYYYYRMDVWGQGTTVIVSS
VL: QPVLTQPPSASASLGASVTLTCSLSSGYSNYKVDWYQQRPGKGPRFVMRVGIGGIVGSKGDGIPDRFSVLGSGLNRYLTIKNIQEEDESDFHCGADHGSGNNFVYVFGTGTKVTVLG
B14: 1E1-MCC-DM1 (antibody, V domains shown)
VH: B13 VH
VL: B13 VL
B15: 30E1 (antibody, V domains shown)
VH: EVQLLESGGGLVQPGGSLRLSCAASGFTFSSHAMSWVRQAPGKGLEWVSAISGGDGNTYYADSVKGRFAISRDNSKNVVYLQMNSLRAEDTAVYFCAKDLVGVVAGYYYYFGMDVWGQGTTVTVSS
VL: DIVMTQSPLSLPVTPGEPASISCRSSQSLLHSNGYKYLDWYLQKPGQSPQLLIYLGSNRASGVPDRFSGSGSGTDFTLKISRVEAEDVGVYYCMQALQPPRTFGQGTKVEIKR
notes: IgG2 or IgG4, purified from hybridoma supernatant; also called 30E1.1; Ab-9
B16: 32H3 (antibody, V domains shown)
VH: EVQLLESGGGLVQPGGSLRLSCAASGFTFSSYAMSWVRQAPGKGLKWVSAISGGAGNTYYADSVKGRFTISRDISKSTVYLQMTSLRAEDTAIYYCAKDGVGTTGGYFYYHGMDVWGQGTTVTVSS
VL: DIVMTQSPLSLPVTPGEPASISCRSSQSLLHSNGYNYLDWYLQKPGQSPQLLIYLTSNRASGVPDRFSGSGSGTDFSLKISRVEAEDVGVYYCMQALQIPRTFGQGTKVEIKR
notes: IgG2 or IgG4, purified from hybridoma supernatant; also called 32H3.1; Ab-12

What was measured:
[1] = molecular target: T1, human BCMA (huBCMA) on cells (human, UniProt Q02223 1-184); assay: cell-based or functional assay
T1 chain: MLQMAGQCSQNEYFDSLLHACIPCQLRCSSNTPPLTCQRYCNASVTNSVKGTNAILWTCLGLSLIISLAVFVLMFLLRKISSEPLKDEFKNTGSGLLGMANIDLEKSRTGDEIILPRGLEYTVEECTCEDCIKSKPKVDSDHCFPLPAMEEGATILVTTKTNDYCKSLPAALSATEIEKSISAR

[2] = molecular target: T1, human BCMA (huBCMA) on cells; assay: cell-based or functional assay
[3] = molecular target: T1, human BCMA (huBCMA) on cells; assay: FACS, H929 cells
[4] = molecular target: T1, human BCMA (huBCMA) on cells; assay: FACS on H929 cells (native BCMA, relative binding, indirect)
[5] = molecular target: T2, rhuBCMA fusion protein (6xHis::Sumo::huBCMA(aa 5-51)::GGS::G3::Avi) (human); assay: Biacore, antibody captured, rhu BCMA analyte
T2 construct: the preparation also held C-terminally clipped forms; also called Sumo-BCMA; SumoBCMA
T2 chain: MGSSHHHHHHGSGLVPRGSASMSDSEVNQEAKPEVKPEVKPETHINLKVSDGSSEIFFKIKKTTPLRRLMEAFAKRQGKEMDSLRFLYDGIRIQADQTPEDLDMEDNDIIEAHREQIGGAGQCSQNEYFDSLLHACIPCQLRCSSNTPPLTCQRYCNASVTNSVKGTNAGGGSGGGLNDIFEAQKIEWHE

[6] = molecular target: T3, rrat BCMA fusion protein (GS::6xHis::Sumo::ratBCMA(aa 2-49)::GGS::G3::Avi) (rat); assay: Biacore, antibody captured, rrat BCMA analyte
T3 chain: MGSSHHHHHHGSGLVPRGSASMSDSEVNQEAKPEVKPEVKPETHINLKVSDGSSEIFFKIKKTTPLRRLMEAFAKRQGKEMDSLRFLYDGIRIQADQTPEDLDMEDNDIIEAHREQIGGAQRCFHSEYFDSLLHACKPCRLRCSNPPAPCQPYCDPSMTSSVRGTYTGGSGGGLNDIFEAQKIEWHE

[7] = molecular target: T1, human BCMA (huBCMA) on cells; assay: FACS, hu BCMA
[8] = molecular target: T4, TACI on transiently transfected cells (human, UniProt O14836 1-293); assay: FACS, hu TACI
T4 construct: whole, on cells; also called huTACI
T4 sequence (looked up): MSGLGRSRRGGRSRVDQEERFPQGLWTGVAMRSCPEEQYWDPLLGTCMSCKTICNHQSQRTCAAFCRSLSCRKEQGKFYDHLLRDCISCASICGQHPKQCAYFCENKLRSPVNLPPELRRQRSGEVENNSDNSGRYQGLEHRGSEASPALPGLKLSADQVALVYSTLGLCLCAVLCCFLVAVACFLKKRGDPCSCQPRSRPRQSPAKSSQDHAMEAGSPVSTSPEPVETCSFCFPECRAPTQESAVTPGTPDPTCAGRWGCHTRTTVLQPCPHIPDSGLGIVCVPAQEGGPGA

[9] = molecular target: T5, cynomolgus (Macaca fascicularis) BCMA on cells (cynomolgus (Macaca fascicularis), UniProt Q02223 1-184 (human entry)); assay: FACS, Cyno BCMA
T5 construct: also called cyno BCMA; cynomolgus BCMA

[10] = molecular target: T5, cynomolgus (Macaca fascicularis) BCMA …; assay: CynoBCMA O/N FACS
[11] = molecular target: T2, rhuBCMA fusion protein …; assay: Biacore, antibody captured, rhu BCMA analyte
[12] = molecular target: T3, rrat BCMA fusion protein …; assay: Biacore, antibody captured, rrat BCMA analyte

T5 sequence (Q02223 other isoform, or with tags, fused parts or gaps): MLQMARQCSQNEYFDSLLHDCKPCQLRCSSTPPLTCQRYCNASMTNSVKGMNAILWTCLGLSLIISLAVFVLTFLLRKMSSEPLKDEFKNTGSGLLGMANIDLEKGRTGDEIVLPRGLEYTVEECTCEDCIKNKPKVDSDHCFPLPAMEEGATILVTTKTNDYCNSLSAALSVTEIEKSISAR

Binder | MFI [7] | MFI [8] | MFI [9] | MFI [10] | other results
B1 |  |  |  |  | IC50, CellTiter-Glo cell viability, H929 cells, 96 h [1]: 2.2 nM
B2 |  |  |  |  | IC50 (nM DM1), cell viability, EW36 [1]: 30 nM DM1; IC50 (nM DM1), cell viability, H929 [1]: 0.6 nM DM1; IC50 (nM DM1), cell viability, MM1R [1]: 3.9 nM DM1; IC50 (nM DM1), cell viability, MM1S [1]: 1 nM DM1; IC50 (nM DM1), cell viability, RAMOS [1]: 32 nM DM1; IC50 (nM DM1), cell viability, U266 [1]: 0.8 nM DM1; IC50, CellTiter-Glo cell viability, H929 cells, 96 h [1]: 2.4 nM
B3 |  |  |  |  | ADCC EC50 [2]: 0.043 µg/mL; EC50 (read off the curve) [3]: ~0.2 µg/mL
B4 |  |  |  |  | IC50 in an H929 tumor cell growth inhibition assay (antibody concentration) [1]: ~0.078 nM
B5 |  |  |  |  | IC50, H929 cell growth (CellTiter-Glo, 96 h) [1]: 0.506 nM; EC50 [4]: 7 nM
B6 |  |  |  |  | Kd [5]: 1.11 nM; Kd [6]: 2.35 nM
B7 | 137000 MFI | 274 MFI | 257000 MFI | 108 MFI | 
B8 | 129000 MFI | 506 MFI | 198000 MFI | 152 MFI | 
B9 |  |  |  |  | IC50, H929 cell growth (CellTiter-Glo, 96 h) [1]: 0.39 nM
B10 | 83700 MFI | 1040 MFI | 136000 MFI | 104 MFI | 
B11 | 82600 MFI | 256 MFI | 97300 MFI | 110 MFI | 
B12 |  |  |  |  | Kd [11]: 0.75 nM; Kd [12]: 2.07 nM
B13 |  |  |  |  | IC50, CellTiter-Glo cell viability, H929 cells, 96 h [1]: 0.68 nM
B14 |  |  |  |  | IC50, CellTiter-Glo cell viability, H929 cells, 96 h [1]: 0.63 nM
B15 | 109000 MFI | 555 MFI | 78500 MFI | 130 MFI | 
B16 | 97700 MFI | 1360 MFI | 51200 MFI | 122 MFI | 
